IntAct's records for PubMed 19966308

B1: Aquaporin-2 (Mus musculus), P56402 (parent)
chain: MWELRSIAFSRAVLAEFLATLLFVFFGLGSALQWASSPPSVLQIAVAFGLGIGTLVQALGHVSGAHINPAVTVACLVGCHVSFLRAAFYVAAQLLGAVAGAAILHEITPVEIRGDLAVNALHNNATAGQAVTVELFLTMQLVLCIFASTDERRSDNLGSPALSIGFSVTLGHLLGIYFTGCSMNPARSLAPAVVTGKFDDHWVFWIGPLVGAVIGSLLYNYLLFPSTKSLQERLAVLKGLEPDTDWEEREVRRRQSVELHSPQSLPRGSKA

Variants of: B1
Details: with anxa2_canlf ANXA2, Q6TEQ7
anxa2_canlf ANXA2, Q6TEQ7, sequence (Q6TEQ7 whole entry): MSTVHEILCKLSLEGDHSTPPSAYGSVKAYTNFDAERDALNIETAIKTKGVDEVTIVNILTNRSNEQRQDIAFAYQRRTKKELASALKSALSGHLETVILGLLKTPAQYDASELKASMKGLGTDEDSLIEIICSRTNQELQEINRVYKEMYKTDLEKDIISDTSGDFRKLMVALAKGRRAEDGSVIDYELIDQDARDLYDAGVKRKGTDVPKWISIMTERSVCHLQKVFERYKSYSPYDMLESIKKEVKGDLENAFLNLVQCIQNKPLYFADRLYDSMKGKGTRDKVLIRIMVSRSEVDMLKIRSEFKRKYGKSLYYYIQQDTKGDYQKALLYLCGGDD

| effect of a mutation on the interaction | Variant |
| --- | --- |
| increasing interaction | MWELRSIAFSRAVLAEFLATLLFVFFGLGSALQWASSPPSVLQIAVAFGLGIGTLVQALGHVSGAHINPAVTVACLVGCHVSFLRAAFYVAAQLLGAVAGAAILHEITPVEIRGDLAVNALHNNATAGQAVTVELFLTMQLVLCIFASTDERRSDNLGSPALSIGFSVTLGHLLGIYFTGCSMNPARSLAPAVVTGKFDDHWVFWIGPLVGAVIGSLLYNYLLFPSTKSLQERLAVLKGLEPDTDWEEREVRRRQAVELHSPQSLPRGSKA [S256A] |

Variants of: B1
Details: with hsp71_canlf HSPA1, Q7YQC6
hsp71_canlf HSPA1, Q7YQC6, sequence (Q7YQC6 whole entry): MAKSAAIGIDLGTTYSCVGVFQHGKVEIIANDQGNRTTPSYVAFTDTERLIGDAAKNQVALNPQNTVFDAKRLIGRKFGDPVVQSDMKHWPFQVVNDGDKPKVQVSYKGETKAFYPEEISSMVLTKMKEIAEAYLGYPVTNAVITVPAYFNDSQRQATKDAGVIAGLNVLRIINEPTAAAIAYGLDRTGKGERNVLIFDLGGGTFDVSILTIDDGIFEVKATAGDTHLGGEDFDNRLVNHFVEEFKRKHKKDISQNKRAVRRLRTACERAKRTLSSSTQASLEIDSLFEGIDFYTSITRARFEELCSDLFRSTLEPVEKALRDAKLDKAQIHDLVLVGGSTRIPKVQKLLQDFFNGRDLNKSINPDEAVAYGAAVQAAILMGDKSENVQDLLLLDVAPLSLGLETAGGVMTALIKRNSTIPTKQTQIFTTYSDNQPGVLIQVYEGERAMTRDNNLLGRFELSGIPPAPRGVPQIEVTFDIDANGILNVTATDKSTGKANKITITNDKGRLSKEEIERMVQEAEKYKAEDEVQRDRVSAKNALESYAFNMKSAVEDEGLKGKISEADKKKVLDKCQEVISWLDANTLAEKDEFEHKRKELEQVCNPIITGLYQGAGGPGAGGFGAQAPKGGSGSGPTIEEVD

| effect of a mutation on the interaction | Variant |
| --- | --- |
| decreasing interaction | MWELRSIAFSRAVLAEFLATLLFVFFGLGSALQWASSPPSVLQIAVAFGLGIGTLVQALGHVSGAHINPAVTVACLVGCHVSFLRAAFYVAAQLLGAVAGAAILHEITPVEIRGDLAVNALHNNATAGQAVTVELFLTMQLVLCIFASTDERRSDNLGSPALSIGFSVTLGHLLGIYFTGCSMNPARSLAPAVVTGKFDDHWVFWIGPLVGAVIGSLLYNYLLFPSTKSLQERLAVLKGLEPDTDWEEREVRRRQSVELHSPQSLPRGDKA [S269D] |
